Article PMC3258132 (Nucleic Acids Research, 2011)
Where two headings read alike, the source gives them in different places.

Assays:
AUC [1] = molecular target: the molecule itself; assay: AUC
AUC [2] = molecular target: the molecule itself; assay: AUC; remark: listed apart in the source
L1 ORF1p [3] = molecular target: T1, L1 ORF1p (Homo sapiens (L1.3, Ta-1 subfamily of …, UniProt Q9UN81)); assay: filter binding
L1 ORF1p [4] = molecular target: T1, L1 ORF1p; assay: filter binding; remark: listed apart in the source
AUC [5] = molecular target: the molecule itself; assay: AUC; remark: listed apart in the source
L1 ORF1p [6] = molecular target: T1, L1 ORF1p; assay: EMSA
L1 ORF1p [7] = molecular target: T1, L1 ORF1p; assay: EMSA; remark: listed apart in the source
L1 ORF1p [8] = molecular target: T1, L1 ORF1p; assay: EMSA; remark: listed apart in the source
L1 ORF1p [9] = molecular target: T1, L1 ORF1p; assay: filter binding; remark: listed apart in the source
L1 ORF1p [10] = molecular target: T1, L1 ORF1p; assay: filter binding; remark: listed apart in the source

B1: M128p, N-terminal deletion mutant of human L1 ORF1p (residues 128-338) (domain or fragment)
chain: GMKREGKFREKRIKRNEQSLQEIWDYVKRPNLRLIGVPESDVENGTKLENTLQDIIQENFPNLARQANVQIQEIQRTPQRYSSRRATPRHIIVRFTKVEMKEKMLRAAREKGRVTLKGKPIRLTADLSAETLQARREWGPIFNILKEKNFQPRISYPAKLSFISEGEIKYFIDKQMLRDFVTTRPALKELLKEALNMERNNRYQPLQNHAKM
How did the Kd (AUC [1]) turn out when B1 was run?
Its Kd is ~3.4 µM.

And the “stoichiometry N” value (AUC [1])?
Its value is 3.

And the Kd (AUC [2])?
Its Kd is ~35 µM.

B2: d29:d29_cmm mismatched duplex (dsDNA)
DNA 1: AAAAAGTACACAGTCTAACATCAACTCGC
DNA 2: GCGAGTTGACGTCAGACCGTGCACTTTTT
Which binding signal (L1 ORF1p [3]) does the source give for B2 here?
The binding signal was ~1 fold of ssDNA d29_c affinity.

B3: d60_c (ssDNA)
DNA: AGCGAGTTGATGTTAGACTGTGTACTTTTTGCGAGTTGATGTTAGACTGTGTACTTTTTA
Which “apparent K (half saturation)” value (L1 ORF1p [4]) does the source give for B3 here?
The value was ~1 nM.

B4: human L1 ORF1 protein (ORF1p), full length, expressed in insect cells (natural protein)
chain: GMGKKQNRKTGNSKTQSASPPPKERSSSPATEQSWMENDFDELREEGFRRSNYSELREDIQTKGKEVENFEKNLEECITRITNTEKCLKELMELKTKARELREECRSLRSRCDQLEERVSAMEDEMNEMKREGKFREKRIKRNEQSLQEIWDYVKRPNLRLIGVPESDVENGTKLENTLQDIIQENFPNLARQANVQIQEIQRTPQRYSSRRATPRHIIVRFTKVEMKEKMLRAAREKGRVTLKGKPIRLTADLSAETLQARREWGPIFNILKEKNFQPRISYPAKLSFISEGEIKYFIDKQMLRDFVTTRPALKELLKEALNMERNNRYQPLQNHAKM
With B4 as the binder, how does the “stoichiometry N” value (AUC [5]) read?
Its value is 3.

B5: r60_U (ssRNA)
RNA: UUUUUUUUUUUUUUUUUUUUUUUUUUUUUUUUUUUUUUUUUUUUUUUUUUUUUUUUUUUU
Does B5 bind (L1 ORF1p [6])?
Result: binds

B6: d60_orf1 (ssDNA)
DNA: GATCATGCAGGACAGTCGGATCGCAACCTGATTTACTGTGTCATATAGTACGTGATTCAG
Does B6 bind (L1 ORF1p [6])?
Result: binds

B7: d53_pT-b (ssDNA)
DNA: GAGAGATTTTTTTTTTTTTTTTTTTTTTTTTTTTTTTTTTTTTTTTCCAGAGC
Does B7 bind (L1 ORF1p [6])?
Result: binds

B8: d120_c (ssDNA)
DNA: AGCGAGTTGATGTTAGACTGTGTACTTTTTGCGAGTTGATGTTAGACTGTGTACTTTTTAAGCGAGTTGATGTTAGACTGTGTACTTTTTGCGAGTTGATGTTAGACTGTGTACTTTTTA
Does B8 bind (L1 ORF1p [7])?
Result: binds

B9: r30_3'utr-a (ssRNA)
RNA: ACCUGCACAAUGUGCACAUGAAAAAAAAAA
With B9 as the binder, how does the “apparent K (half saturation)” value (L1 ORF1p [4]) read?
Its value is ~1 nM.

B10: d58_pT-b (ssDNA)
DNA: GAGAGATTTTTTTTTTTTTTTTTTTTTTTTTTTTTTTTTTTTTTTTTTTTTCCAGAGC
Does B10 bind (L1 ORF1p [8])?
Result: binds

B11: d29:d29_c perfect duplex (dsDNA)
DNA 1: AAAAAGTACACAGTCTAACATCAACTCGC
DNA 2: GCGAGTTGATGTTAGACTGTGTACTTTTT
For B11, which binding signal (L1 ORF1p [9]) is on record?
Its binding signal is ~8 fold lower affinity than mismatched duplex N10.

B12: d29_c (ssDNA)
DNA: GCGAGTTGATGTTAGACTGTGTACTTTTT
B12 was tested. Which binding signal (L1 ORF1p [10]) did it give?
Its binding signal is ~1 fold of mismatched duplex affinity.
